# Measured values taken from patent publication US20110076272A1, “THERAPEUTIC METHODS AND COMPOSITIONS” (priority 2009, published 2011).
# Test system: Matrigel plug containing bFGF
# Assay: In vivo Matrigel plug angiogenesis assay
# Set-up: species or system mouse
# Conditions: 30 mg/kg i.p. twice weekly
# Procedure: Athymic female Ncr:Nu/Nu mice were injected subcutaneously in the flank with 0.5 ml high-concentration Matrigel (BD Biosciences, San Jose, Calif.) supplemented with 100 ng/ml FGF and 60 U heparin. Matrigel injections were conducted one week after initiation of treatments with antibodies). Antibodies (or PBST, as a control) were administered by intraperitoneal injection of 30 mg/kg twice weekly. Matrigel plugs were harvested 10 days after implantation by excising the plug together with attached skin, and were fixed in 10% neutral buffered formalin and embedded in paraffin. 5 um sections were cut and stained with hematoxylin and eosin, anti-CD31 or anti-CD34 antibodies to assess degree of vessel formation.
molecule,measurement,setting,value
"AB0023: mouse anti-human LOXL2 monoclonal antibody; heavy chain variable region SEQ ID NO:1, light chain variable region SEQ ID NO:2 (antibody, listed as Mus musculus, V domains shown, Heavy chain; Light chain) VH: MEWSRVFIFLLSVTAGVHSQVQLQQSGAELVRPGTSVKVSCKASGYAFTYYLIEWVKQRPGQGLEWIGVINPGSGGTNYNEKFKGKATLTADKSSSTAYMQLSSLTSDDSAVYFCARNWMNFDYWGQGTTLTVSS VL: MRCLAEFLGLLVLWIPGAIGDIVMTQAAPSVSVTPGESVSISCRSSKSLLHSNGNTYLYWFLQRPGQSPQFLIYRMSNLASGVPDRFSGSGSGTAFTLRISRVEAEDVGVYYCMQHLEYPYTFGGGTKLEIK",CD31 positive cells in the matrigel plugs,p=0.0168,significant decrease
same,reduction in average number of vessels in plugs versus vehicle,"plugs at day 10, p=0.0319",~7 fold
